Assay results as given in patent publication US9889179B2, “FGF-18 compound dosing regimen” (MERCK PATENT GMBH, priority 2014, dated 2018).
Entries after “also recorded” stand apart in the source; their conditions may differ. Like-named read-outs stand apart in the source and are kept apart here.

Key:
[1] = system: medial meniscal tear in the right knee joint; format: in vivo, Male Lewis rats; details: for swelling scores versus vehicle controls: days 24-29, 31, 36-43
Procedure: Male Lewis rats underwent surgery to induce a medial meniscal tear in the right knee joint. Animals were dosed i.a. with FGF-18 (10 μg/joint) on days 21, 28, and 35 and dosed orally with diclofenac (either 1 mg/kg or 3 mg/kg) or vehicle on days 21-23, 28-30, and 35-37, then terminated on day 42 or day 63. Serum was collected and evaluated for alpha 2 macroglobulin (α2MG) levels on days −3, 21, 42, and 63. α2MG is an inflammation serum biomarker. The link between α2MG and inflammation has already been shown (Kuribayashi et al., 2013).

[2] = system: OA symptoms; details: cited from earlier work
[3] = system: RA; details: human, in vivo; cited from earlier work
[4] = system: ACLT+tMx model of instability-induced OA; experiment: ACLT+tMx model of instability-induced OA, cartilage matrix deposition by Safranin-O (Example 1); format: in vivo, male Lewis rats
Procedure: The anterior cruciate ligament transection with resection of the medial meniscus (ACLT+tMx) model of instability-induced OA was performed in male Lewis rats 10-15 weeks of age. Briefly, under anesthesia with Isoflurane, the joint capsule of the right knee of each rat was opened, the anterior cruciate and the meniscus fixating ligaments were sharply transected, the meniscus was removed and the capsule, muscles and skin closed by sutures. Animals were randomly allocated into 10 groups of n=10 each. The following dosages were investigated: 0, 0.3, 1, 3 and 10 μg per intra-articular injection. Groups 1-5 received one cycle of three single injections at weekly intervals, group 6-10 three single injections at monthly intervals. Intra-articular treatment was started three weeks post-surgery. At this time pathophysiological changes are already mainifest, e.g., cartilage matrix loss. Animals were euthanized 17 weeks after surgery and joints were investigated.

[5] = system: medial meniscal tear in the right knee joint; format: in vivo, Male Lewis rats
Procedure: After the sacrifice, the right knee was removed and decalcified in 5% formic acid for 4-6 d before cutting in half in the frontal plane and embedding in paraffin wax. Three sections were cut in 200 μm steps, stained with toluidine blue, and analyzed using ImagePro Plus™ software (Media Cybernetics). In scoring the three sections of the joint, the worst-case scenario for the two halves on each slide was determined for the cartilage lesion as the cartilage degeneration width (μm). This reflects the areas of tibial cartilage lesion in which both chondrocyte and proteoglycan loss extend 50% of the cartilage thickness. The measurement was taken over the area of greatest lesion severity in each of the three zones across the tibial surface.
A treatment group Mean±SE for each score and measurement was determined.
Data was analyzed using a one-way analysis of variance (1-way ANOVA) or Kruskal-Wallis test (non-parametric), along with an appropriate multiple comparison post-test. Right knee caliper measurements were compared to left using a Student's t-test. Unless indicated, Bolder BioPATH, Inc. performs statistical analysis on raw (untransformed) data only. […] Significance for all tests was set at p≦0.05. Comparisons were made between each group and the vehicle control group, as well as between pairs
Male Lewis rats underwent surgery (under anesthesia with Isoflurane) to induce a medial meniscal tear in the right knee joint. Animals were dosed IA with vehicle or FGF-18 on one of two different regimens (see table below), then terminated on day 105. Knees had caliper measurements taken at baseline and days 21, 42, 56, 84, and 105. Serum was evaluated for α2 macroglobulin levels at baseline and on days 21, and 105, as well as one week after the final dose (day 42 or 84). Right knees were collected for histopathology evaluation.

[6] = system: full-thickness defect in the articular cartilage of the trochlear groove; format: in vivo, New Zealand White rabbits
Text: 60 adult male, naïve, New Zealand White rabbits were used for this study. Animals were approximately 3-4 months of age. Rabbits underwent surgery for creation of the cartilage defect right knee. A 2 mm by 6 mm full-thickness defect was made in the articular cartilage of the trochlear groove. The microfracture was created using 18 gauge needles. Two 3 mm deep microfractures were made through the subchondral bone at the base of the defect, one proximally and one distally. Each microfracture hole was approximately 1.5 mm in diameter and the holes separated by 2 mm. The experiment consisted of the following six treatment groups, with 10 animals in each group for a total of 60 rabbits (Table 2). Rabbits in Groups 3, 4, 5 and 6 were treated with intra-articular rhFGF-18 in either one cycle of three weekly injections of 100 μg of rhFGF-18 (Group 3 and 5) or one cycle of three monthly injections of 100 μg of rhFGF-18 (Group 4 and 6). All animals were euthanized and necropsied 6 months after surgery. [table]

[7] = system: Primary articular porcine chondrocytes; experiment: Porcine chondrocyte proliferation with or without IL1α challenge (Example 4); format: cell-based, pig; details: 100 ng/mL; for increase in the cell number versus control (medium, no IL1α): 8 days of culture; for stimulation of proliferation versus control (medium, IL1α 10 ng/mL): 8 days
Procedure: Porcine chondrocytes were isolated from the cartilage of a femoral head of a pig hip (pigs were approximately one year old). After dissection of the joints, the cartilage was harvested and digested for 45 minutes with collagenase 0.25% ( 1/10 dilution of collagenase NBG4 2.5% in HAM's F12) at room temperature. The loosened cells were discarded and the cartilage further digested overnight with collagenase 0.1% ( 1/25 dilution of collagenase NBG4 2.5% in HAM's F12) at 37° C. to extract the chondrocytes. For this study, the chondrocytes were cultured in a monolayer.
Primary articular porcine chondrocytes were stimulated or not with 10 ng/mL IL1α and were either treated immediately or 6 hours later with anakinra 100 ng/mL and/or trFGF-18 100 ng/mL. Each condition was performed in 4 or 6-plicate. As a control, cells were also cultured with anakinra alone, trFGF-18 alone or in the absence of any treatment (medium).
Pre-culture: After cell isolation porcine chondrocytes were inoculated at 20,000 cells/cm^2 and cultivated for one week in complete HAM's F12. Cells were then harvested with accutase, counted and used as described below.
For cells treated directly with anakinra: Chondrocytes were inoculated in a 24-well plate at 15,000 cells/well in 0.5 mL of complete HAM's F12. Then 0.25 mL of trFGF-18 400 ng/mL and/or 0.25 mL of anakinra 400 ng/mL were added to the cells. In the challenged samples, 10 μL of IL1α at 1,000 ng/mL were also added to the cells. trFGF-18, anakinra and IL1α were all diluted in complete HAM's F12. The final volume in the culture well was adjusted to 1 mL with complete HAM's F12. Final concentrations were 10 ng/mL IL1α, 100 ng/mL trFGF-18 and 100 ng/mL anakinra and the total culture time was eight days. A complete medium change was performed after four days. N=4.
For cells treated with anakinra and trFGF-18 6 hours after the IL1α challenge: Chondrocytes were inoculated in a 24-well plate at 15,000 cells/well in 1 mL of complete HAM's F12 containing or not containing IL1α 10 ng/mL. After 6 hours the medium was removed and replaced with 0.25 mL trFGF-18 400 ng/mL and/or 0.25 mL of anakinra 400 ng/mL. In the challenged samples, 0.25 mL of IL1α at 40 ng/mL was also added to the cells. trFGF-18, anakinra and IL1α were all diluted in complete HAM's F12. The final volume in the culture well was adjusted to 1 mL with complete HAM's F12. Final concentrations were 10 ng/mL IL1α, 100 ng/mL trFGF-18 and 100 ng/mL anakinra and the total culture time was eight days. A complete medium change was performed after four days. N=6.
After eight days of culture, cells were harvested with accutase and resulting cell suspensions were analyzed for cell concentration and cell viability with a ViCell™ cell analyzer (from Beckman Coulter). […]

[8] = system: rat model of OA (ACLT with tMx); experiment: ACLT+tMx rat model of OA, intracycle dosing frequency of sprifermin (Example 6); format: in vivo, male Lister Hooded Rats
Procedure: The goal of this study was to evaluate the effect of different intracycle dosing frequency of the same total dosage (3×1 μg) of sprifermin on cartilage volume in a rat model of OA. The anterior cruciate ligament transection (ACLT) with resection of the medial meniscus (tMx) was performed as disclosed in Example 1. Joints from male Lister Hooded Rats (200-260 g, Charles River) were used in this study. Animals were euthanized 18 weeks post-surgery.
The changes in the joint are related to clinical assessments in OA (cartilage loss, osteophytes, subchondral sclerosis). One μg sprifermin in saline was injected three times either weekly, every 2nd, every 3rd, every 4th or every 5th week and compared to appropriate vehicle groups. Body weight, joint diameters and clinical health scores were investigated weekly.

Which results are given for `O=C(O)Cc1ccccc1Nc1c(Cl)cccc1Cl` [diclofenac, 2-(2,6-dichloranilino) phenylacetic acid]?
knee caliper measurements ([1]; diclofenac 1 mg/kg oral with FGF-18 i.a., any other time point): not significantly affected; knee caliper measurements ([1]; diclofenac 1 mg/kg oral with FGF-18 i.a., day 42): significantly reduced; swelling scores versus vehicle controls ([1]; diclofenac 1 mg/kg oral with FGF-18 i.a.): significantly reduced; knee caliper measurements ([1]; diclofenac 3 mg/kg oral with FGF-18 i.a., any other time point): not significantly affected; knee caliper measurements ([1]; diclofenac 3 mg/kg oral with FGF-18 i.a., day 42): significantly reduced; swelling scores versus vehicle controls ([1]; diclofenac 3 mg/kg oral with FGF-18 i.a.): significantly reduced; serum α2MG levels, all groups ([1]; diclofenac 1 and 3 mg/kg with FGF-18, day 63): similar; time for which effects on knee swelling were evident after the final dose of diclofenac ([1]; diclofenac 1 or 3 mg/kg with FGF-18): approximately one week

Which pain versus placebo ([2]; anakinra 150 mg) does the source give for “anakinra: recombinant, nonglycosylated form of human interleukin-1 receptor antagonist (IL-1Ra), SEQ ID NO: 3” here?
Its pain versus placebo is “tendency toward pain reduction”.

And the “improvements in OA symptoms compared with placebo” value ([2]; anakinra therapy)?
The value was “not significantly associated with improvements”.

And the “joint damage in RA patients” value [3]?
The value was “reduction in frequency and severity of joint damage”.

What about the “pain in RA patients” value [3] of the same molecule?
Its value is “pain reduction”.

B1: trFGF-18: recombinant truncated form of human FGF-18 (170 amino acids, SEQ ID NO: 2), produced in E. coli (protein)
chain: MEENVDFRIHVENQTRARDDVSRKQLRLYQLYSRTSGKHIQVLGRRISARGEDGDKYAQLLVETDTFGSQVRIKGKETEFYLCMNRKGKLVGKPDGTSKECVFIEKVLENNYTALMSAKYSGWYVGFTKKGRPRKGPKTRENQQDVHFMKRYPKGQPELQKPFKYTTVTK
modifications: Recombinant truncated FGF-18(trFGF-18)
For B1, which “dose at which neo-formation of cartilaginous tissue became significant” value ([4]; lateral tibia, independently of the injection regime (three i.a. injections weekly or monthly), 17 weeks after surgery) is on record?
Its value is 1 μg/joint.

And the “dose at which neo-formation of cartilaginous tissue became significant” value ([4]; medial tibia, one-monthly regimen, three i.a. injections)?
Its value is 0.3 μg/joint.

What about the “dose at which neo-formation of cartilaginous tissue became significant” value ([4]; medial tibia, one-weekly regimen, three i.a. injections) of the same molecule?
Its value is 1 μg/joint.

And the “extent of injury over the tibial surface (collagen damage), histopathology” value ([5]; 10 μg IA, day 105)?
Its value is “generally increased”.

And the “severity of tibial injury, histopathology” value ([5]; 10 μg IA, day 105)?
Its value is “reducing its severity”.

What about the “structural benefit (total joint score, substantial tibial cartilage degeneration width)” value ([5]; monthly injection scheme versus other regimens, 10 μg IA) of the same molecule?
The value was “highest”.

And the overall morphology ([5]; three injections once monthly (Group 5; days 21, 49, 77))?
Its overall morphology is “best overall morphology”.

What about the “animals with intercondylar groove filled with cartilage” value ([6]; Group 4: no microfracture, monthly x3, nearly normal to slightly roughened or granular cartilage) of the same molecule?
Its value is 6/9.

And the “animals with intercondylar groove filled” value ([6]; Group 6: microfracture, monthly x3, finely granular to granular cartilage)?
Its value is 3/10.

And the “animals with groove 50% filled to nearly completely filled” value ([6]; Group 6: microfracture, monthly x3, granular to coarsely granular cartilage)?
The value was 7/10.

And the “increase in defect fill percentages” value ([6]; no microfracture, monthly for three months, significant)?
The value was 48%.

What about the necropsy findings ([6]; rabbit, in vivo) of the same molecule?
Its necropsy findings is “stimulation of osteophytes on the medial and lateral trochlear ridges”.

And the “increase in the cell number versus control (medium, no IL1α)” value ([7]; first experiment (direct treatment, N=4))?
Its value is 11.25 fold.

And the “increase in the cell number versus control (medium, no IL1α)” value ([7]; second experiment (6-hour delay, N=6))?
The value was 7.75 fold.

And the “stimulation of proliferation versus control (medium, IL1α 10 ng/mL)” value ([7]; first experiment (direct treatment))?
Its value is 2.38 fold.

What about the “stimulation of proliferation versus control (medium, IL1α 10 ng/mL)” value ([7]; second experiment (6-hour delay)) of the same molecule?
The value was 2.44 fold.

And the “cartilage denudation, stereology” value ([8]; 3 x 1 μg/joint, 18 weeks post-surgery)?
The value was “prevented more or less complete cartilage denudation”.

What about the “cartilage volume on medial tibia” value ([8]; One μg/joint once every 3rd week, three injections in total, listed as rhFGF-18) of the same molecule?
The value was “statistically significant difference over saline; also recorded: most beneficial structural outcome”.

And the “cartilage volume compared to placebo” value ([8]; all groups treated (weekly to every 5th week))?
Its value is “higher cartilage volume values”.

What about the joint diameters ([8]; between injections every 2nd, 3rd or 4th week) of the same molecule?
Its joint diameters is “No significant differences”.

What about the “AUC of joint diameters” value ([8]; injected every 5th week) of the same molecule?
Its value is “the same as with saline injections”.

And the “joint diameters (AUC of joint diameter difference)” value ([8]; injections in week 3, 4 and 5 versus week 3, 8 and 13)?
Its value is “significantly higher”.

What about the body weight gain ([8]; intra-articular injections, 3 x 1 μg) of the same molecule?
Its body weight gain is “no influence”.
